Measured values reported in the DeepSol protein solubility set.

Assay: soluble on expression in E. coli; label from the status in PepcDB or PDB records

For “MSSNALYTDLSGYYDLMCSDINYQQQSASIHRLHQFLGNNGKQHLDLACGTGPHVRHFIDLGYQCSGLDINQPMLDMAMRRCPEAQFNLQDMTAFYLEQPVDLITCFLYSIHYSAGIERLKSCIASVHRALNDGGIFCFNSVDKHCIDNRLSIKHFAEFEGYHFAFESGWHYNGQGEKQSLNLSIAKRQQPFTQLTDFEADTSLHQTELWQDQHTMVATSFAELQALLAPYFEVHIFEHDYEKIVPWDLSSGNALFVCVKILEHHHHHH”, which “soluble on expression in E. coli” value is on record?
Its value is “not soluble”.

With “MSLADLLDTVKQRGALKIALEGTYPPFNFKDAKQQLTGFDVEIATEIARRMKVKPEFVTAEWSGLLAGLQSGKFDIVVNQVGVTAQRQAVFDFSQPYTYSSAQLIVRKNESRDFKNLADLKGKKLGVGQGSNYADMAKAAAGVQVKTYPGAPEYLQDLATGRLDAALNDSLLIPFAIKQAKLPLKAGAPVGEVAAMAIPFAKGNPQFKSEIDKALGGMKADGTFRKISVKWFGIDVSKAEGHHHHHH” as the sequence, how does the “soluble on expression in E. coli” value read?
The value was “soluble”.

For “MEGISNFKTPSKLSEKKKSVLCSTPTINIPASPFMQKLGFGTGVNVYLMKRSPRGLSHSPWAVKKINPICNDHYRSVYQKRLMDEAKILKSLHHPNIVGYRAFTEANDGSLCLAMEYGGEKSLNDLIEERYKASQDPFPAAIILKVALNMARGLKYLHQEKKLLHGDIKSSNVVIKGDFETIKICDVGVSLPLDENMTVTDPEACYIGTEPWKPKEAVEENGVITDKADIFAFGLTLWEMMTLSIPHINLSNDDDDEDKTFDESDFDDEAYYAALGTRPPINMEELDESYQKVIELFSVCTNEDPKDRPSAAHIVEALETDV”, which “soluble on expression in E. coli” value is on record?
Its value is “soluble”.

Which “soluble on expression in E. coli” value does the source give for “MSLSNNTINIALIGYGFVGKTFHAPLIRSVPGLNLAFVASRDEEKVKRDLPDVTVIASPEAAVQHPDVDLVVIASPNATHAPLARLALNAGKHVVVDKPFTLDMQEARELIALAEEKQRLLSVFHNRRWDSDYLGIRQVIEQGTLGAVKHFESHFDRFRPEVRVRWREQNVPGSGLWFDLGPHLIDQALQLFGLPQSVQGNIATLRDGAEINDWAHVVLNYPAHKVILHCSMLVAGGSSRFTVHGDKGSVIKARADQQESQLLAGVVPGSADWGQDDDPLVIYDASLQAHAQATPQGDQRQYYMLIRDALKGQIANPVPPVEALAVMAVLEAAVRSAESGMVQTLDLSDDERNTLREGHHHHHH” here?
Its value is “soluble”.

Which “soluble on expression in E. coli” value does the source give for “MGSSHHHHHHGGFSQSCLPNWIMHGKSCYLFSFSGNSWYGSKRHCSQLGAHLLKIDNSKEFEFIESQTSSHRINAFWIGLSRNQSEGPWFWEDGSAFFPNSFQVRNAVPQESLLHNCVWIHGSEVYNQICNTSSYSICEKEL” here?
The value was “soluble”.

With “MSLNDRNASKMLSTYNVAYWGGNYYDVNELGHISVCPDPDIREARVDLAQLVKKMQLEQGQRLPALFCFPQILQHRLRSINAAFKRARESFGYEGGYFLVYPIKVNQHRRVIESLVNSGEPLGLEAGSKAEMMAVLAHAGMTRSVIVCNGYKDREYIRLALIGEKLGHKVYLVIEKMSEIKMVLEEAERLNVVPRLGVRARLASQGSGKWQASGGEKSKFGLSATQVLQLVDMLREANSLESLQLLHFHLGSQLSNIRDISTGVRESARFYVELHKLGVNIQCFDVGGGLGVDYEGTRSQSDCSVNYGLNEYANNVIWGIGDACNEHGLPHPTVITESGRAVTAHHTVLVSNVIGVERNEFCEPQPPEAGAPRALESLWDTWQEMQEPENRRSLREWLHDSQMDLHDVHTQYAHGMLDLTHRAWAEQLYLSICNEIQKQLDPSNRAHRPIIDELQERMADKLYVNFSLFQSMPDAWGIDQLFPVLPLEGLDKPPERRAVLLDITCDSDGTIDHYIDGDGVATTMPMPPYDPENPPLLGFFMVGAYQEILGNMHNLFGDTAAVDVYVFPDGTVEVEQTDEGDTVADMLEYVQLNPEKLLEHFRGQVKETDLDTELQAQFLEEFEAGLYGYTYLEDEGHHHHHH” as the sequence, how does the “soluble on expression in E. coli” value read?
Its value is “soluble”.

For “MGSDKIHHHHHHMLITETFHDVQTSYGTTLRIYVYSPKIAGYPQAKFPGVILYSEIYQVTGPVRRFGQRIASEGYVVVAPAIYHNFMGPEALPYDVQGTDIGNEYKIKKPLESYDEDNKLCCDLLFQLPQFDGKRIGSTGMCLGGHLAFRALLDKRVTCATCFFPTDIHSRTLGLGQNDNSLERVSKELGNNQEMVLIFGTADTHVDPQGRDLIRKTLRDHGVKFTFLEILAAQHAFIRDEFSKGRFDSAITQSCLGFLFEQFNRKLRIDLGEFVDDNTPLEHVC”, which “soluble on expression in E. coli” value is on record?
Its value is “not soluble”.

Which “soluble on expression in E. coli” value does the source give for “MQQPEQYCRFLCLVAHEFFHLWNIKRIRPQAFEVFDYDSENYTTSLWFVEGVTSYFDQLIPLWAGLFDAPTYLKLLSDSLNRYFHTPGRFVQSLSAASFDAWIKLYRPDENSINSQMSYYLKGELVALLLDLRLEHHHHHH” here?
Its value is “not soluble”.

For “QPSPPQRPNRCTVCRKRVGLTGFMCRCGTTFCGSHRYPEVHGCTFDFKSAG”, which “soluble on expression in E. coli” value is on record?
The value was “soluble”.

Which “soluble on expression in E. coli” value does the source give for “RSGKCVGDVIETVDSEEAMGDLKIVLAAIFARKFAGVNGEVTKEYLEGYKMLNIYITNACNLKCKHCFMLSGKKLENELTLEDWMKVLTSFKENGGEFVTFSGGEPLMFKNFPQIISHAHDLGLKSTVLSNGLLWSGKLIHDLALFIDEIQFSLDGVDEETNSMVRGSGHFEKVVDTIVKFANAGVKT” here?
Its value is “not soluble”.

For “MGSDKIHHHHHHMNIIPYRVTLLEPLLATRIAGDPNSGVSYPYVPGSLVRGAAVAMYARNKGIVAVDAREEEARRLFFDGRTRYLNAYPADASGRRTLPTPRSLFHVEGEESPIYDFALEVIDAVNEETVQFVGAARDSQPFCRIDDSNIFFISPKRRINVHTQRDRVKGRATEVSGAVFQYDALEEGQTFAGWVLVDKDDDVELLSSLLRHIYRLGGSSNSGYGRVTVAVDAPQNIQVWREIPKQIVPIDAGETFVVTLLSDTLVRDPNTGQYTWDLRPALQQLLSVEIEHIHPIAGEEEQRSVWRLDEVGGFNRAWGLPLPQAQAIAGGSVFVFRARSPIPAQTIAGAEWDGIGERRAEGFGRLAFNWQTETELIRVDPPVVSLIDQLVPNLDGPARNIAQQMAMRMLRRELDAKLRKAINDIRPKHLSISNTQLSRLRIIAREALPNGDLARLQKYLDENIKTRRSVRDQFDRTRLGSEERLSQWLEERLSQPETVWDKIGAQTLSKRIGANVLVSTRDDTELAREYTIRLIDGVLARLAKERRREDGGRQ”, which “soluble on expression in E. coli” value is on record?
The value was “not soluble”.

For “MAAHSFPLLRLPPKNLASVLRQVEIIEQIGLSLLSNKTKEYIRKFCDFKGFELSVWLHPYAVELELFKNGEGATHCSFRDGRACEHNEYPDGFTFDASQFFDMKSCLKHLLYILNPSKIAFLFYIQSNEVSDESQFQMTVDCLKGVKILKFSAKCIPQMNHIVRLVNAFPQTNRLSLVKNSNQPFQLSTLRQILHRKIQKLNLVIDITLNELLLNNSATSDFYSERLRGKDINLFLKHWAAGLKPELEYISFQISAVNFVESTILAGIPH”, which “soluble on expression in E. coli” value is on record?
Its value is “not soluble”.

For “MGSDKIHHHHHHYRPLFDKDLSNADYDSSVWTFKNGILTATADQSIWTKVQYENFILDLEFKTDVNTNSGVVIYCTDKGNWIPSSIEIQIADDHHPEWQSYPEYWRCGSIYGHKGANEQLVVKKPGEWNRMIITAKGQQIDIELNGKHIVSANLADWTSGTTNPDGTEIPEWLPIPYANMPTKGYIGLQGKHGESNIWFRNIQLKQL”, which “soluble on expression in E. coli” value is on record?
Its value is “not soluble”.

For “MAHHHHHHMLRWTSRYLCASAAAAAGPEVHRDVEEFAVVIVGGGPSGLSAAIRLKQLAGDQRDSFRVGLVEKGSEIGAHTLSGACVEPHGLDELLPGWREQEGSVLSSMTPVTSDAFHVLIGPSRSVKVPWLPSTLHNRGNYITSLGGICKWLGEQAEALGVEIYPGFAAADVVVDEATGAVTGVQLNDRGVDKSGRRTAQYEPGMIFRAKQTIFAEGCRGSCTKQLEKRFGLRTADNPQTFGLGIKEVWEVPKERHHPGTVMHTVGWPTTDKGHDNTYGGAFLYHYGDGLISCGYVVGLDYSNPYCRPYMEMQKWKTHDLIRGQLEGGRPILYGARTLVEGGFSALPKLHFPGGVLAGDCAGFLNLPKIKGTHTAMKSGMLAAEAVYEDAFKGGKEEAASGVECKSYDDCFRSSWLYKELYTVRNVRQSFYKSFKWGMLYTGITSLLLHGREPWTLKHTTPDNLSLKPAKECVEIKYPKPDGTLTFDLLTNHSRSGTAHNADQPCHLRLKDSKVAEEVNLKAYAGPEARFCPAGVYEFVNDKLVINAQNCLHCKACDIKDPTQNINWTVPEGGGGPNYQAQM”, which “soluble on expression in E. coli” value is on record?
Its value is “not soluble”.

For “MNKVKILAIVGSLRKGSYNRQLALAAKEIVKDTADFTLLDYQDVPLMNEDIEYPAPDAVKRVREEVKAADGIWFFTPEYNHFFPGVLKNLIDWLSRPVSENEPQVLAGKPAAISGISLGMSGTAIAQDHLVTLISFLDMKVMNVPRVTVPNAWQYVDDQGKLIMESIYPHLEKQAKAFVNFIQAKCL”, which “soluble on expression in E. coli” value is on record?
The value was “not soluble”.

With “MGFHLRNSLALPPDTPAVKVQSAVQYSELAKLLRRGLKASGATLADEDAKTGFAQVQVLSERWGDLPIAIDSQGRAQEYSLRYAAIFTVTTANGAVLVPQQVIELSRDYVSPPVDATGTATEREILADELRKDMSASILRRIDSVVRARLKHGESLESTPTAPLPPAPVQPTTLPESSVPAALPPAPTSGNLEHHHHHH” as the sequence, how does the “soluble on expression in E. coli” value read?
Its value is “not soluble”.

With “MIVVSGSQSQNLAFKVAKLLNTKLTRVEYKRFPDNEIYVRIVDEINDDEAVIINTQKNQNDAIVETILLCDALRDEGVKKITLVAPYLAYARQDKKFNPGEAISIRALAKIYSNIVDKLITINPHETHIKDFFTIPFIYGDAVPKLAEYVKDKLNDPIVLAPDKGALEFAKTASKILNAEYDYLEKTRLSPTEIQIAPKTLDAKDRDVFIVDDIISTGGTMATAVKLLKEQGAKKIIAACVHPVLIGDALNKLYSAGVEEVVGTDTYLSEVSKVSVAEVIVDLL” as the sequence, how does the “soluble on expression in E. coli” value read?
Its value is “soluble”.

Which “soluble on expression in E. coli” value does the source give for “MSLGDKPLQTVLHDEHYGGLDFSLGDSKYSGELEYNKSYMVNFSVNLPAEGSVKVAKAYVYWVWSKKDLEGIYPQFNASIINSETTAPLPKGHMYTDTKGFVSRYDYFSGMNTYDLSGKISKSGNYSISLVNTDKNGSTFCVQGIGLLLVYEDPKSPAIEYWINEGCDMLYADYGITPEVATTTTYFKGDIDPDNVTDARLITVSPSGGYSSGREARNKLFFNEETRSIPVLGDIVQLLFGSGKVWENVYQTNETVQIALDEKPVADYLEPTENFASIQDNGDYLLATNAILVLKFKGPESSETKGSEGHHHHHH” here?
Its value is “soluble”.

Which “soluble on expression in E. coli” value does the source give for “MYDFAIIGSGVAGATLAKELRYRYKVAVIEKGKKPSYASEGKNVEINYVYGLGGSGVYSLGNAIKTEIKGYKIDKDIYKEIWEELKIKAPKDDFLNDIDKAFIELGFEKMEKFIDFDRCNKCGECARKICKAKWTPLNYLKESNANIITEFNIKAINYSNYYEILDDKGRKIKAKNLIISAGGINSPRILKKMIDDENIGKNLFIDTFVTVGGILEDSYLNKDISMLVYKKYKNFMLATHYSKLLINEIKKDYKDVKEKDIVGIMIKIKDENNGVVLDNDVKKEITKEDFKTLARGICKATKYLYKLGVDDIYTTIPRGSHPGGSLSLVVDEFEVREGLYVCDASLFKEALGVPPIVSIIALSKKFVREILLEHHHHHH” here?
The value was “not soluble”.

With “GPGSMSFKPTISVHATPQELSAAGCRKIVEIIETSGSQQWPLSIALAGGSTPKMTYARLHDEHLNLLREKRALRFFMGDERMVPADSTDSNYNMAREVLLHDIPDDLVFPFDTSAVTPSAEATSADAMRVAEAYGKQLASLLPLKSVGEAGAKVPVFDVVLLGLGSDGHTASIFPGSQAEKETDGKVVVSVGFPSETMKPKVWRVTLSPATIMQARNVIVLATGAEKKWVVDGILADTAHKAPVARFLRGCEGNVSFLLDKEIAENLAKF” as the sequence, how does the “soluble on expression in E. coli” value read?
Its value is “soluble”.
